Values quoted from earlier work, collected in patent publication US20040071657A1, “Chemoattractant recruitment of dendritic cells for enhancement of immunization” (priority 2003, published 2004).

Tested on: circulating DC
Settings: in vivo administration to mice

B1: Flt3-L: Flt3 ligand, a growth factor polypeptide that promotes dendritic cell growth (protein, UniProt P49771 27-235, looked up)
Fms-related tyrosine kinase 3 …: TQDCSFQHSPISSDFAVKIRELSDYLLQDYPVTVASNLQDEELCGGLWRLVLAQRWMERLKTVAGSKMQGLLERVNTEIHFVTKCAFQPPPSCLRFVQTNISRLLQETSEQLVALKPWITRQNFSRCLELQCQPDSSTLPPPWSPRPLEATAPTAPQPPLLLLLLLPVGLLLLAAAWCLHWQRTRRRTPRPGEQVPPVPSPQDLLLVEH
For B1, the “increase in the number of circulating DC” value is given as 10-30 fold.
